In patent publication US20230365636A1, “BIOORTHOGONAL REPORTER GENE SYSTEM” (priority 2020, published 2023):
pIC50: −log10 of the molar value.

Key:
[1] = target: DTPA-V5-TMD-mRuby3 (human); assay: Flow cytometry of lentivirally transduced Jurkat cells stained with Alexa Fluor 488-conjugated SV5-PK1 against the extracellular V5-tag. Target printed as DTPA-mRuby3.
[2] = target: DTPA-V5-TMD-mRuby3 (human); assay: Magnetic-activated cell separation with SV5-PK1 and anti-mouse IgG microbeads, read by flow cytometry for mRuby3. Cells: Jurkat DTPA-V5-TMD-mRuby3.
DTPA-miRFP703 = assay: Flow cytometry of lentivirally transduced Jurkat cells stained with Alexa Fluor 488-conjugated SV5-PK1 against the extracellular V5-tag. Target printed as DTPA-miRFP703.
scFv(muC825)-V5-CD4TMD [3] = assay: Flow cytometry of retrovirally transduced Jurkat cells after FACS sorting of the 10% highest expressing cells. Staining with AlexaFluor488-conjugated SV5-PK1. Target printed as muC825-V5-TMD.
scFv(huC825)-V5-CD4TMD [4] = assay: Flow cytometry of retrovirally transduced Jurkat cells after FACS sorting of the 10% highest expressing cells. Staining with AlexaFluor488-conjugated SV5-PK1. Target printed as huC825-V5-TMD.
scFv(muC825)-V5-CD4TMD [5] = assay: flow cytometry, SV5-PK1-AlexaFluor488 on transduced Jurkat cells; the filing reads it as surface expression level
CL31d-V5-CD4TMD (human) [6] = assay: as above
Chain of CL31d-V5-CD4TMD (human) (chain, as listed by the source): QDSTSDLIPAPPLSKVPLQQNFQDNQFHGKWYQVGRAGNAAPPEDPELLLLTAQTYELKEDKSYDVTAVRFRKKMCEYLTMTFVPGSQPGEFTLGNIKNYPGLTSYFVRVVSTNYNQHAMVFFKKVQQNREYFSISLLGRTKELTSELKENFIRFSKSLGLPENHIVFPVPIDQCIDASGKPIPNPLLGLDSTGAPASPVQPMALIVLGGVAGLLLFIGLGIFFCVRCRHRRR

scFv(huC825)-V5-CD4TMD [7] = assay: as above
[8] = target: Colchi-V5-TMD-mRuby3 (human); assay: Magnetic-activated cell separation with SV5-PK1 and anti-mouse IgG microbeads, read by flow cytometry for mRuby3. Cells: Jurkat Colchi-V5-TMD-mRuby3.
DTPA-miRFP720 = assay: Flow cytometry of lentivirally transduced Jurkat cells stained with Alexa Fluor 488-conjugated SV5-PK1 against the extracellular V5-tag. Target printed as DTPA-miRFP720.
CL31d-V5-CD4TMD (human) [9] = assay: Flow cytometry of lentivirally transduced Jurkat cells stained with Alexa Fluor 488-conjugated SV5-PK1 against the extracellular V5-tag. Target printed as DTPA-TMD.
Colchi-V5-TMD (human) = assay: Quantification of the SV5-PK1 western blot signals with LI-COR software. The y axis is fold change [relative].
CL31d-V5-CD4TMD (human) [10] = assay: as above
CL31d-V5-CD4TMD (human) [11] = assay: Flow cytometry of retrovirally transduced Jurkat cells after FACS sorting of the 10% highest expressing cells. Staining with AlexaFluor488-conjugated SV5-PK1. Target printed as CL31d-V5-TMD.
[12] = target: T1, reporter protein DTPA-V5-TMD-mRuby3 (DTPA-R) on Jurkat cells (Homo sapiens, UniProt P80188, C107S/D67E/D97E/I100T/I61A/I75T/K154S/K66P/K70L/K95M/L127F/L56R/L62P/L90R/M71L/N85D/P68L/Q48H/Q69L/R101M/R63P/S119N/S147Q/S88A/T156S/T74Q/V53Q/W99L/Y158L/Y72T); assay: Competition radioligand binding assay (Y-90 radioligand vs Y-89 charged chelator) on Jurkat cells; details: competition of fixed amount of Y-90 radioligand by dilution series of Y-89 charged chelator, FIG. 14A
T1 construct: to Jurkat cells expressing the reporter protein DTPA-V5-TMD-mRuby3 was assessed; expressed in transfected cells; host or cells: Jurkat (human T-cell line), stably modified
T1 sequence (P80188 21-197 with the stated changes): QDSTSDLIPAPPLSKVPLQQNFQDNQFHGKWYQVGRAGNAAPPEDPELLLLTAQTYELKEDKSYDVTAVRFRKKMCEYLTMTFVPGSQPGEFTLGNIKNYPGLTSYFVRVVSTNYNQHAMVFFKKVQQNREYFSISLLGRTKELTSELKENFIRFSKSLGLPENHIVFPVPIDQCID
Protocol: The binding of different radioligands to cells that express the DTPA-R or Colchi-R was shown in binding assays. To this end, Jurkat or PC3 cells that stably express the respective reporter protein of the invention were cultivated, counted and a defined concentration was incubated together with the radioligand in PBS with 2% BSA for 1 h at 37° C. Subsequently, the cells were washed twice with PBS with 2% BSA and finally in the cell-bound fraction and the supernatant fraction the respective radioactivity was detected. (A) NH2-Bn-CHX-A″-DTPA⋅Y-90 binding was competed with a non-radioactive competitor NH2-Bn-CHX-A″-DTPA⋅Y-89. […] (C) A comparative binding assay with ^18F-Py-Ahx-DTPA and ^18F-Py-Glu-Glu-PEG(4)-Colchicine to Jurkat cells expressing either DTPA-R or Colchi-R proving the orthogonal functionality of the two reporter protein & reporter probe pairs.
For the sensitive and specific detection of cells that are labeled with the reporter gene of the invention, the binding between the Anticalin binding protein and the radioligand is of utmost importance. For this reason, the binding of different radioligands to cells that were stably modified with the reporter genes was studies in vitro (FIG. 14). At first, the binding of the ligand domain for the DTPA-R (NH2-CHX-A″-DTPA) to Jurkat cells expressing the reporter protein DTPA-V5-TMD-mRuby3 was assessed. […]

Compound	MFI [1]	% mRuby3-positive cells in the MACS eluate [2] [%]	% mRuby3-positive cells in the MACS flow through [2] [%]	MFI (DTPA-miRFP703)	MFI (scFv(muC825)-V5-CD4TMD [3])	MFI (scFv(huC825)-V5-CD4TMD [4])	Median Fluorescence Intensity (MFI) (scFv(muC825)-V5-CD4TMD [5])	Median Fluorescence Intensity (MFI) (CL31d-V5-CD4TMD (human) [6])	Median Fluorescence Intensity (MFI) (scFv(huC825)-V5-CD4TMD [7])	% mRuby3-positive cells in the MACS eluate [8] [%]	% mRuby3-positive cells in the MACS flow through [8] [%]	MFI (DTPA-miRFP720)	MFI (CL31d-V5-CD4TMD (human) [9])	fold increase of the quantified V5 band signal, lane 5 over lane 3 (Colchi-V5-TMD-mRuby3) (Colchi-V5-TMD (human)) [fold]	fold increase of the quantified V5 band signal, lane 4 over lane 2 (DTPA-V5-TMD-mRuby3) (CL31d-V5-CD4TMD (human) [10]) [fold]	MFI (CL31d-V5-CD4TMD (human) [11])	pIC50 [12]
monoclonal anti-V5-antibody SV5-PK1	1740	98.5	0.8	2330	7400	6200	1130	6560	1080	99	1.5	2550	18500	5.4	3.7	20600	–
Nc1ccc(C[C@H](CN(CC(=O)O)[C@H]2CCCC[C@@H]2N(CC(=O)O)CC(=O)O)N(CC(=O)O)CC(=O)O)cc1 [NH2-CHX-A″-DTPA, [(R)-2-amino-3-(4-aminophenyl)propyl]-trans-(S,S)-cyclohexane-1,2-diaminepentaacetic acid]	–	–	–	–	–	–	–	–	–	–	–	–	–	–	–	–	8.85
